Experimental data from patent US12037419B2 (The Feinstein Institutes for Medical Research, priority 2016, dated 2024).

Experiments:
[1] = target: T1, RAGE (Homo sapiens, UniProt Q15109); assay: SPR assay of C1q and RAGE binding; settings: data not shown
T1 construct: purchased R&D Systems
Protocol: Surface Plasmon Resonance analysis (SPR): For real-time binding interaction studies, a BIAcore T200 instrument (GE Healthcare) was used. […] A 1:1 mixture of N-hydroxysuccinimide and N-ethyl-N-(dimethyaminopropyl) carbodiimide was used to activate 2 flow-cells of the CMS chip. […] The analytes were diluted in 1×PBS+0.01% (vol/vol) tween-20 buffer. The analytes were sequentially injected at a flow rate of 30 μl/min for 60 s at 25° C. The KD was dertermined using the BIAcore evaluation software 2.0 (GE Healthcare) supposing a 1:1 binding ratio.

[2] = tested on: human monocytes; assay: Induction of anti-inflammatory molecules / M2-like phenotype (Mer, PDL-1, IL-10, CD163) in monocytes; format: cell-based; settings: together with HMGB1 3 μg/ml, C1q 25 μg/ml or C1q tail 53 μg/ml, 24 h
Protocol: (§1) Monocyte isolation and stimulation: Human PBMCs were obtained following institutional guidelines of the Feinstein Institute for Medical Research (Feinstein) and isolated from blood of healthy donors by density centrifugation (New York Blood Bank). Monocytes were negatively enriched using a human monocyte enrichment kit (Stem Cell Technology). Purity of monocytes (≥90% CD11b+CD14+LAIR-1+) was determined by flow cytometry. […] Splenic murine monocytes from wild type mice, RAGE deficient or LAIR-1 conditional knockout mice were isolated using EasySep mouse monocyte enrichment kit (Stem Cell Technology). C57BL/6 mice, Lysozyme2-Cre transgenic mice were purchased from Jackson Laboratory. Myeloid specific LAIR-1 conditional knockout mice (Lysozyme2-Cre×LAIR fl/fl) were bred and maintained in our facility (Feinstein) under specific pathogen-free conditions. RAGE deficient mice (Department of Medicine, Karolinska Institute Stockholm, Sweden) were maintained at Feinstein. Eight-to ten weeks old male mice were used for experiments. All animal procedures were approved by the Feinstein Institutional Animal Care and Use Committee.
RT-PCR analysis and primers: Total RNA was extracted from cells (1-2×10^6 cells per sample) with an RNeasy kit (Qiagen, Venlo, Limburg, Netherlands) and cDNA was generated using an iScript cDNA synthesis kit (Bio-Rad laboratories). […] The relative induction was calculated by 2-ΔΔCt.
(§2) Cytokine analysis: Cytokine levels were measured using a Human Proinflammatory 7-plex assay following the manufacturer's protocols (Meso Scale Discovery (MSD). MSD plates were analyzed on the MS2400 imager (MSD). All standards and samples were run in duplicates.
Flow cytometry: Cells were suspended in staining buffer containing 2% BSA and incubated with Fc block (Miltenyi Biotec) for 15 min on ice. […] Events were acquired using either an LSRII or Fortessa cell analyzer (BD Biosciences), and data were analyzed using FlowJo (Tree star).

[3] = tested on: murine macrophages; assay: RvD2 and LTB4 in murine macrophages after HMGB1 in vivo (FIG. 22); set-up: species or system mouse
[4] = tested on: NZB/W mice; assay: NZB/W lupus mice in vivo (FIG. 23-25); set-up: species or system mouse
[5] = tested on: human monocytes; assay: HMGB1-induced monocyte activation (cytokine mRNA by q-PCR, protein by ELISA/MSD); format: cell-based; settings: HMGB1 alone
Protocol: as §1
RT-PCR analysis and primers: Total RNA was extracted from cells (1-2×10^6 cells per sample) with an RNeasy kit (Qiagen, Venlo, Limburg, Netherlands) and cDNA was generated using an iScript cDNA synthesis kit (Bio-Rad laboratories). Real Time-PCR was performed on a Light Cycler 480 II (Roche) using Light Cycler 480 master mix with primers (Applied Biosystems) for IFNα1 (Hs00256882), IFNα7 (mm02525960), MX1 (Hs00182073, mm01217998), IL-6 (Hs00985639, mm99999064), TNFα (Hs00174128, mm00443258), IL-12a (Hs00168405), Mer (Hs01031973), PDL-1 (Hs01125301), IL-10 (Hs00961622), CD163 (Hs00174705), HPRT1 (Hs99999909, mm01545399) and Polr2a (Hs00172187). The genes of interest were normalized to the expression of house keeping genes and were compared to a control condition with no treatment. The relative induction was calculated by 2-ΔΔCt.
Transfection: For RNA interference assays, human monocytes were transfected using an Amaxa Nucleofector kit (Lonza) with a greater than 40% transfection efficiency. siRNAs were obtained from Qiagen. The target sequence of human LAIR1-11 is […] (SEQ ID NO:9). The efficiency of knockdown was determined by flow cytometry and q-PCR.
as §2

[6] = tested on: human monocytes; assay: SeaHorse cellular flux assay (OCR, ECAR); format: cell-based; settings: HMGB1 3 μg/ml alone, 24 h
Protocol: Cell metabolism analysis using SeaHorse Cellular Flux assay. […] One hour prior to measurement, culture medium was exchanged for assay medium (unbuffered DMEM (Sigma), supplemented with 10 mM Glucose, 1 mM Pyruvate and 2 mM Glutamine for mitochondrial assays, or with 2 mM Glutamine alone for glycolytic assays. Reagents were injected during the measurement to achieve final concentrations of oligomycin (1 μM), carbonyl cyanide p-(trifluoromethoxy) phenylhydrazone (FCCP) ([…]), Rotenone/antimycin A (0.5 μM). Glucose (10 mM), and 2-Deoxy-D glucose (50 mM). Oxygen consumption rate (OCR) and Extracellular acidification rate (ECAR) values were measured using a SeaHorse XfP instrument (SeaHorse bioscience). Measured values were normalized to the number of live cells present in each well as determined by a trypan blue staining by the end of each run. For OCR/ECAR ratio calculations, an average of the last two basal readings was used for both OCR and ECAR.

[7] = tested on: human monocytes; assay: Monocyte to DC differentiation with GM-CSF and IL-4 (flow cytometry); format: cell-based; settings: HMGB1 alone 24 h, then GM-CSF and IL-4
[8] = tested on: allogeneic primary human CD4 T cells; assay: Allogeneic mixed lymphocyte reaction; format: cell-based; settings: HMGB1 3 μg/ml alone
Protocol: Allogeneic CD4 T lymphocytes were isolated from blood using the Naïve CD4+ T cell isolation kit II (Miltenyi Biotec.) following the manufacturer's protocol. Cells were analyzed by flow cytometry (>90%). T cells were labeled with 5 μM Cell Trace Violet cell proliferation kit (Thermo Fisher Scientific), added to mono/macrophages at a density of 2×10^5 cells/well (a 1:2 ratio) in the presence of 1 μg/ml anti-CD3 (OKT3, eBioscience). Control cultures contained medium only or T cells or mono/macrophages alone. After 4 days, cells were stained with FITC-anti-CD4, PerCPCy 5.5-CD14, PE-LAIR-1 and fixable viability dyes (FVD, eBioscience) for 20 min at room temperature and subsequently washed and fixed. Live cells (FVD-negative cells) were then gated on CD4-positive, and cell trace violet was assessed by flow cytometry on a BD LSR II (BD Biosciences). Cell proliferation was analyzed as described (51). The % divided cells was defined as the probability that a cell has divided at least once from the original population. The division index was defined as the average number of cell divisions that a cell in the original population has undergone.

T1 sequence (Q15109 23-342 limits assumed): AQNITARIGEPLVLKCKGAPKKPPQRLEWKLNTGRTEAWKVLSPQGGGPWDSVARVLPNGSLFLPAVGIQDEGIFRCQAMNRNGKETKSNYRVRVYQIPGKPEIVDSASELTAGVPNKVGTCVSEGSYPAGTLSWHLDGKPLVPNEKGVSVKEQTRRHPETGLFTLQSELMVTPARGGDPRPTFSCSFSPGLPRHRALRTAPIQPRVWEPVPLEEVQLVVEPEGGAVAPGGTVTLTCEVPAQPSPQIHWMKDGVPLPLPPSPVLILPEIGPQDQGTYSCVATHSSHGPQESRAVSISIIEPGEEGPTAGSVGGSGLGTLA

“C1q tail: C1q tail purified from whole C1q; collagen-like tail” was tested. Which “binding to RAGE” value [1] did it give?
The value was “No binding”.

What about the “transcription and protein expression of anti-inflammatory factors (Mer, PDL-1, IL-10, CD163)” value [2] of the same molecule?
The value was “did not mediate similar effects”.

B1: KLKEKYEKDIAAYRAKGKPDAAKKGVVKAEKSKKGGGGSGGGGSGGGGSKGEQ GEPGAPGI (peptide)
chain: KLKEKYEKDIAAYRAKGKPDAAKKGVVKAEKSKKGGGGSGGGGSGGGGSKGEQGEPGAPGI
modifications: Artificial based on human
notes: HMGB1 B box-linker-C1q peptide
What does the source list for B1?
LTB4 induction by HMGB1 in murine macrophages [3]: abolishes LTB4 induction; RvD2 in murine macrophages ([3]; HMGB1 challenge): induces RvD2; anti-DNA IgM/IgG-producing splenocytes ([4]; NZB/W mice in vivo): decreases anti-DNA IgM/IgG-producing splenocytes; inflammatory and anti-inflammatory markers in splenocytes ([4]; NZB/W mice in vivo): decreases inflammatory and increases anti-inflammatory markers; progression of serum anti-dsDNA antibodies ([4]; NZB/W mice in vivo): slows the progression; kidney IgG deposition ([4]; NZB/W mice, staining data not shown): decreases kidney IgG deposition

B2: HMGB1: Recombinant HMGB1 (Calmodulin Binding Protein Epitope, Cbp tagged) (protein)
chain: MGKGDPKKPRGKMSSYAFFVQTCREEHKKKHPDASVNFSEFSKKCSERWKTMSAKEKGKFEDMAKADKARYEREMKTYIPPKGETKKKFKDPNAPKRPPSAFFLFCSEYRPKIKGEHPGLSIGDVAKKLGEMWNNTAADDKQPYEKKAAKLKEKYEKDIAAYRAKGKPDAAKKGVVKAEKSKKKKEEEEDEEDEEDEEEEEDEEDEDEEEDDDDE
modifications: left off: small tags and cut ends
Which “transcription and secretion of type 1 IFN, IFN-inducible genes and proinflammatory cytokines” value [5] does the source give for B2 here?
Its value is “dramatically increased”.

And the OCR/ECAR ratio [6]?
The OCR/ECAR ratio was “significantly decreased”.

And the “baseline oxidative phosphorylation (OCR) and glycolytic metabolism (ECAR)” value [6]?
Its value is “enhanced”.

What about the “monocyte to DC differentiation after pre-treatment with HMGB1” value [7] of the same molecule?
Its value is “monocyte to DC differentiation occurred”.

And the “stimulation of T cells by monocytes exposed to HMGB1” value [8]?
The value was “induced the strongest mixed lymphocyte reaction”.
